Measured values taken from patent US11471462B2, “Compositions and methods for detecting and treating diabetes” (THE BROAD INSTITUTE, INC., priority 2016, dated 2022).

B1: HSDI7B12 (protein, UniProt Q53GQ0 1-312, looked up)
Very-long-chain 3-oxoacyl-CoA …: MESALPAAGFLYWVGAGTVAYLALRISYSLFTALRVWGVGNEAGVGPGLGEWAVVTGSTDGIGKSYAEELAKHGMKVVLISRSKDKLDQVSSEIKEKFKVETRTIAVDFASEDIYDKIKTGLAGLEIGILVNNVGMSYEYPEYFLDVPDLDNVIKKMININILSVCKMTQLVLPGMVERSKGAILNISSGSGMLPVPLLTIYSATKTFVDFFSQCLHEEYRSKGVFVQSVLPYFVATKLAKIRKPTLDKPSPETFVKSAIKTVGLQSRTNGYLIHALMGSIISNLPSWIYLKIVMNMNKSTRAHYLKKTKKN
B2: SURF4 (protein)
chain: GQNDLMGTAEDFADQFLRVTKQYLPHVARLCLISTFLEDGIRMWFQWSEQRDYIDTTWNCGYLLASSFVFLNLLGQLTGCVLVLSRNFVQYACFGLFGIIALQTIAYSILWDLKFLMRNLALGGGLLLLLAESRSEGKSMFAGVPTMRESSPKQYMQLGGRVLLVLMFMTLLHFDASFFSIVQNIVGTALMILVAIGFKTKLAALTLVVWLFAINVYFNAFWTIPVYKPMHDFLKYDFFQTMSVIGGLLLVVALGPGGVSMDEKKKEW
B3: SACM1L (protein)
chain: MATAAYEQLKLHITPEKFYVEACDDGADDVLTIDRVSTEVTLAVKKDVPPSAVTRPIFGILGTIHLVAGNYLIVITKKIKVGEFFSHVVWKATDFDVLSYKKTMLHLTDIQLQDNKTFLAMLNHVLNVDGFYFSTTYDLTHTLQRLSNTSPEFQEMSLLERADQRFVWNGHLLRELSAQPEVHRFALPVLHGFITMHSCSINGKYFDWILISRRSCFRAGVRYYVRGIDSEGHAANFVETEQIVHYNGSKASFVQTRGSIPVFWSQRPNLKYKPLPQISKVANHMDGFQRHFDSQVIIYGKQVIINLINQKGSEKPLEQTFATMVSSLGSGMMRYIAFDFHKECKNMRWDRLSILLDQVAEMQDELSYFLVDSAGQVVANQEGVFRSNCMDCLDRTNVIQSLLARRSLQAQLQRLGVLHVGQKLEEQDEFEKIYKNAWADNANACAKQYAGTGALKTDFTRTGKRTHLGLIMDGWNSMIRYYKNNFSDGFRQDSIDLFLGNYSVDELESHSPLSVPRDWKFLALPIIMVVAFSMCIICLLMAGDTWTETLAYVLFWGVASIGTFFIILYNGKDFVDAPRLVQKEKID
B4: BAG2 (protein)
chain: AQAKINAKANEGRFCRSSSMADRSSRLLESLDQLELRVEALREAATAVEQEKEILLEMIHSIQNSQDMRQISDGEREELNLTANRLMGRTLTVEVSVETIRNPQQQESLKHATRIIDEVVNKFLDDLGNAKSHLMSLYSACSSEVPHGPVDQKFQSIVIGCALEDQKKIKRRLETLLRNIENSDKAIKLLEHSKGAGSKTLQQNAESRFN
B5: DDOST (protein)
chain: SGPRTLVLLDNLNVRETHSLFFRSLKDRGFELTFKTADDPSLSLIKYGEFLYDNLIIFSPSVEDFGGNINVETISAFIDGGGSVLVAASSDIGDPLRELGSECGIEFDEEKTAVIDHHNYDISDLGQHTLIVADTENLLKAPTIVGKSSLNPILFRGVGMVADPDNPLVLDILTGSSTSYSFFPDKPITQYPHAVGKNTLLIAGLQARNNARVIFSGSLDFFSDSFFNSAVQKAAPGSQRYSQTGNYELAVALSRWVFKEEGVLRVGPVSHHRVGETAPPNAYTVTDLVEYSIVIQQLSNGKWVPFDGDDIQLEFVRIDPFVRTFLKKKGGKYSVQFKLPDVYGVFQFKVDYNRLGYTHLYSSTQVSVRPLQHTQYERFIPSAYPYYASAFSMMLGLFIFSIVFLHMKEKEKSD
B6: SLC16A11 (protein, UniProt Q8NCK7 1-471, looked up)
Monocarboxylate transporter 11: MPAPQRKHRRGGFSHRCFPTPQTAMTPQPAGPPDGGWGWVVAAAAFAINGLSYGLLRSLGLAFPDLAEHFDRSAQDTAWISALALAVQQAASPVGSALSTRWGARPVVMVGGVLASLGFVFSAFASDLLHLYLGLGLLAGFGWALVFAPALGTLSRYFSRRRVLAVGLALTGNGASSLLLAPALQLLLDTFGWRGALLLLGAITLHLTPCGALLLPLVLPGDPPAPPRSPLAALGLSLFTRRAFSIFALGTALVGGGYFVPYVHLAPHALDRGLGGYGAALVVAVAAMGDAGARLVCGWLADQGWVPLPRLLAVFGALTGLGLWVVGLVPVVGGEESWGGPLLAAAVAYGLSAGSYAPLVFGVLPGLVGVGGVVQATGLVMMLMSLGGLLGPPLSGFLRDETGDFTASFLLSGSLILSGSFIYIGLPRALPSCGPASPPATPPPETGELLPAPQAVLLSPGGPGSTLDTTC
B7: TMEM33 (protein)
chain: ADTTPNGPQGAGAVQFMMTNKLDTAMWLSRLFTVYCSALFVLPLLGLHEAASFYQRALLANALTSALRLHQRLPHFQLSRAFLAQALLEDSCHYLLYSLIFVNSYPVTMSIFPVLLFSLLHAATYTKKVLDARGSNSLPLLRSVLDKLSANQQNILKFIACNEIFLMPATVFMLFSGQGSLLQPFIYYRFLTLRYSSRRNPYCRTLFNELRIVVEHIIMKPACPLFVRRLCLQSIAFISRLAPTVP
B8: SEC61A2 (protein)
chain: MGIKFLEVIKPFCAVLPEIQKPERKIQFREKVLWTAITLFIFLVCCQIPLFGIMSSDSADPFYWMRVILASNRGTLMELGISPIVTSGLIMQLLAGAKIIEVGDTPKDRALFNGAQKLFGMIITIGQAIVYVMTGMYGDPAEMGAGICLLIIIQLFVAGLIVLLLDELLQKGYGLGSGISLFIATNICETIVWKAFSPTTINTGRGTEFEGAVIALFHLLATRTDKVRALREAFYRQNLPNLMNLIATVFVFAVVIYFQGFRVDLPIKSARYRGQYSSYPIKLFYTSNIPIILQSALVSNLYVISQMLSVRFSGNFLVNLLGQWADVSGGGPARSYPVGGLCYYLSPPESMGAIFEDPVHVVVYIIFMLGSCAFFSKTWIEVSGSSAKDVAKQLKEQQMVMRGHRDTSMVHELNRYIPTAAAFGGLCIGALSVLADFLGAIGSGTGILLAVTIIYQYFEIFVKEQAEVGGMGALFF
B9: CANX (protein)
chain: HDGHDDDVIDIEDDLDDVIEEVEDSKPDTTAPPSSPKVTYKAPVPTGEVYFADSFDRGTLSGWILSKAKKDDTDDEIAKYDGKWEVEEMKESKLPGDKGLVLMSRAKHHAISAKLNKPFLFDTKPLIVQYEVNFQNGIECGGAYVKLLSKTPELNLDQFHDKTPYTIMFGPDKCGEDYKLHFIFRHKNPKTGIYEEKHAKRPDADLKTYFTDKKTHLYTLILNPDNSFEILVDQSVVNSGNLLNDMTPPVNPSREIEDPEDRKPEDWDERPKIPDPEAVKPDDWDEDAPAKIPDEEATKPEGWLDDEPEYVPDPDAEKPEDWDEDMDGEWEAPQIANPRCESAPGCGVWQRPVIDNPNYKGKWKPPMIDNPSYQGIWKPRKIPNPDFFEDLEPFRMTPFSAIGLELWSMTSDIFFDNFIICADRRIVDDWANDGWGLKKAADGAAEPGVVGQMIEAAEERPWLWVVYILTVALPVFLVILFCCSGKKQTSGMEYKKTDAPQPDVKEEEEEKEEEKDKGDEEEEGEEKLEEKQKSDAEEDGGTVSQEEEDRKPKAEEDEILNRSPRNRKPRRE
B10: HSD17B12 (protein)
chain: B1 Very-long-chain 3-oxoacyl-CoA …

Tested on: SLC16A11
Experiment: SLC16A11 protein-protein interaction study (immunoprecipitation, quantitative mass spectrometry)
Set-up: species or system human
Settings: enrichment of protein immunoprecipitated from HEK293T cells expressing P2D SLC16A11^REF-V5 vs empty vector control; Blandt-Altman; quantitative mass spectrometry
Excerpt: Alternatively, these variants may result in reduced transport because they disrupt protein-protein interactions responsible for correct SLC16A11 function. To explore this possibility, SLC16A11 was immunoprecipitated from HEK293T cells expressing either REF or T2D risk SLC16A11-V5 or empty vector control and quantitative mass spectrometry was used to define the SLC16A11 interactome.
Another mechanism through which the variants could affect activity is through disruption of protein-protein interactions. To explore this possibility, quantitative mass spectrometry-based protein-protein interaction studies were performed to define the SLC16A11 interactome and evaluate if the T2D risk coding variants alter any interactions.
Beads were then washed once with lysis buffer and three times with wash buffer. After the last wash, residual wash buffer was removed, 10 μL fresh wash buffer was added, and beads were stored at −80° C. until analysis by the Proteomics Platform at the Broad Institute, as detailed in the “Proteomics Methods for SLC16A11 Protein Interaction Studies” below.
The beads from immunopurification were washed once with IP lysis buffer, then three times with PBS, the three different lysates of each replicate were resuspended in 90 uL digestion buffer (2M Urea, 50 mM Tris HCl), 2 ug of sequencing grade trypsin added, 1 hour shaking at 700 rpm. The supernatant was removed and placed in a fresh tube. The beads were then washed twice with 50 uL digestion buffer and combined with the supernatant. The combined supernatants were reduced (2 uL 500 mM DTT, 30 minutes, RT), alkylated (4 uL 500 mM IAA, 45 minutes, dark) and a longer overnight digestion performed: 2 ug (4 uL) trypsin, shake o/n, The samples were then quenched with 20 uL 10% FA and desalted on 10 mg SepPak columns.
Desalted peptides were labelled with iTRAQ reagents according to the manufacturer's instructions (AB Sciex, Foster City, Calif.). Peptides were dissolved in 30 μl of 0.5 M TEAB pH 8.5 solution and labeling reagent was added in 70 ul of ethanol. After 1 h incubation the reaction was stopped with 50 mM Tris/HCl pH 7.5. Differentially labelled peptides were mixed and subsequently desalted on 10 mg SepPak columns.
Reconstituted peptides were separated on an online nanoflow EASY-nLC 1000 UHPLC system (Thermo Fisher Scientific) and analyzed on a benchtop Orbitrap Q Exactive Plus mass spectrometer (Thermo Fisher Scientific). The peptide samples were injected onto a capillary column (Picofrit with 10 μm tip opening/75 μm diameter, New Objective, PF360-75-10-N-5) packed in-house with 20 cm C18 silica material (1.9 μm ReproSil-Pur C18-AQ medium, Dr. Maisch GmbH, r119.aq). The UHPLC setup was connected with a custom-fit microadapting tee (360 μm, IDEX Health & Science, UH-753), and capillary columns were heated to 50° C. in column heater sleeves (Phoenix-ST) to reduce backpressure during UHPLC separation. Injected peptides were separated at a flow rate of 200 nL/min with a linear 80 min gradient from 100% solvent A (3% acetonitrile, 0.1% formic acid) to 30% solvent B (90% acetonitrile, 0.1% formic acid), followed by a linear 6 min gradient from 30% solvent B to 90% solvent B. Each sample was run for 120 min, including sample loading and column equilibration times. The Q Exactive instrument was operated in the data-dependent mode acquiring HCD MS/MS scans (R=17,500) after each MS1 scan (R=70,000) on the 12 top most abundant ions using an MS1 ion target of 3×10^6 ions and an MS2 target of 5×10^4 ions. The maximum ion time utilized for the MS/MS scans was 120 ms; the HCD-normalized collision energy was set to 27; the dynamic exclusion time was set to 20 s, and the peptide match and isotope exclusion functions were enabled.
All mass spectra were processed using the Spectrum Mill software package v6.0 pre-release (Agilent Technologies) which includes modules developed by us for iTRAQ-based quantification. […]

| Molecule | B.A. logFC |
| --- | --- |
| B1 | 1.26 |

Same assay, conditions: putative SLC16A11^REF interaction partners; immunoprecipitation from HEK293T cells vs empty vector control; Blandt-Altman

| Molecule | BA log fold change |
| --- | --- |
| B2 | 1.33 |
| B3 | 1.26 |
| B4 | 1.26 |
| B5 | 1.65 |
| B6 | 1.34 |
| B7 | 1.25 |
| B8 | 1.59 |
| B9 | 1.38 |
| B10 | 1.26 |
